One assay concerns isolated NRVM. Kind of assay: Quantitative PCR of ANP and BNP in NRVM. In kind it is cell-based, rat. Particulars: for expression of ANP and BNP: 48 h, FGF alone, qPCR. As for the experimental part:
Total RNA was purified from isolated NRVMs using Trizol (G Biosciences) according to the manufacturer's protocol, and reverse transcribed using Qscript (Quanta Biosciences). Gene expression was quantified by real-time PCR on a Biorad CFX 96 real-time Detection System using 200 ng of cDNA, PerfeCTA SYBR Green FastMix ROX (Quanta Biosciences). RNA from total mouse and rat hearts was extracted using the PureLink RNA Mini Kit (Ambion by Life Technologies) and Trizol (Life Technologies). 2 μg total RNA was reverse-transcribed using First Stand cDNA Synthesis Kit for RT-PCR (AMV) (Roche Diagnostics). Quantitative PCR reactions were carried out in the StepOne plus Real-Time PCR System (Applied Biosystems) using FAST SYBR Green Master Mix (Applied Biosystems). Raw data were quantified via StepOne™ software v2.3 from life Technologies. Relative gene expression was normalized to expression levels of 18S rRNA (for NRVM), and GAPDH or beta actin (mouse and rat tissue), and evaluated using the 2^−ΔΔCt method.
On the technique in general: Quantitative PCR measures a nucleic acid by following its amplification.

Assay [1] concerns neonatal mouse ventricular myocytes (NMVM). Kind of assay: Hypertrophic growth and β-MHC of isolated NMVM (wild-type or FGFR4−/−). In kind it is cell-based. Particulars: 48 h. On the procedure:
NMVM were isolated enzymatically (Kreusser et al., 2014). Briefly, hearts from 1-3 day-old mice were harvested, minced in PBS/glucose and further digested with collagenase type 2 (0.2% w/v) and DNase (0.05% w/v) on a rotary shaker at 37° C. for 11 minutes. Cells were then released from the tissue by triturating the suspension twice with a standard 10 ml plastic serological pipette, transferred to DF10 medium (Dulbecco's Modified Eagle Medium/Ham's Nutrient Mixture F12 adjusted to 17 mM NaHCO2 containing 2 mM L-glutamine, 1% P/S and 10% FBS), and stored on ice. The remaining tissue was further incubated in PBS/glucose/collagenase/DNase solution on a rotary shaker at 37° C. for 11 minutes. The trituration and incubation steps were repeated 5-7 times until the tissue was completely dissolved. Cells were pelleted at 300 g for 5 minutes, resuspended in DF20 media (Dulbecco's Modified Eagle Medium/Ham's Nutrient Mixture F12 adjusted to 17 mM NaHCO2 containing 2 mM L-glutamine, 1% P/S and 20% FBS), and preplated for 1 hour to eliminate fibroblasts. Remaining cells were counted using a hemocytometer and plated on glass and plastic surfaces, which were coated with laminin (Sigma-Aldrich; 10 μg/ml in PBS) at room temperature for 1 hour prior to plating. For immunofluorescence analysis, 3×10^5 cells were seeded per well on glass coverslips in 24-well plates. For Western blot analyses of total protein extracts, 5×10^6 cells were seeded in 10 cm-culture dishes. Cells were left undisturbed in DF20 medium at 37° C. for 72 hours, starved overnight with DF medium (Dulbecco's Modified Eagle Medium/Ham's Nutrient Mixture F12 adjusted to 17 mM NaHCO2 containing 2 mM L-glutamine, 1% P/S), and treated in DF medium with recombinant FGF23, FGF2 (both at 100 ng/ml) or AngII (1 μM, Sigma-Aldrich) for 48 hours.
HEK293 cells, NRVM or NMVM were treated with growth factors for 30 minutes to analyze activation of signal transduction mediators, or for 48 hours to analyze expression levels of hypertrophic marker proteins. Cells were scraped from 6-well plates using 500 μl CHAPS extraction buffer (20 mM Tris-HCl pH7.5, 500 mM NaCl, 0.5% CHAPS, protease inhibitor cocktail (Roche), protein phosphatase inhibitors [Sigma-Aldrich]) and incubated on ice for 30 minutes. The cell lysate was centrifuged at 14,000 rpm and 4° C. for 30 minutes, and the supernatant boiled in sample buffer and analyzed by SDS-PAGE and immunoblotting. For protein extraction from mouse hearts, tissue was isolated, minced and homogenized in RIPA extraction buffer (50 mM Tris-HCl pH 7.5, 200 mM NaCl, 1% Triton X-100, 0.25% DOC, 1 mM EDTA, 1 mM EGTA, protease and phosphatase inhibitors) at 1:10 (w:v), and protein lysates were prepared as described above.
Cultured cells were fixed in 2% PFA (in 5 mg/ml sucrose) for 5 minutes and permeabilized in 1% Triton X-100 (in PBS) for 10 minutes. We analyzed hypertrophic growth of isolated NRVM and NMVM on laminin-coated glass coverslips after 48 hours of treatment with growth factors. For FGFR4 expression and localization analyses, untreated NMVM from wild-type and FGFR4^−/− mice were immunolabeled. The mouse monoclonal antibody against sarcomeric α-actinin (EA-53; Sigma-Aldrich) was used at 1:1,000, and rabbit polyclonal anti-FGFR4 (C-16; Santa Cruz) at 1:50. Cy3-conjugated goat-anti mouse and Alexa488-conjugated goat-anti rabbit (Jackson Immuno Research) were used as secondary antibodies at 1:300. To visualize nuclei, fixed cells were incubated with 4′,6-diamidino-2-phenylindole (DAPI; 400 ng/ml in PBS) for 10 minutes. Immunofluorescence images were taken on a Leica TCS-SP5 confocal microscope with a 63× oil objective.
Myocyte cross-sectional area was measured based on α-actinin-positive staining using Leica AF6000 fluorescence software. […]

With `CCN(CC)CCCCNc1ncc2cc(-c3cc(OC)cc(OC)c3)c(NC(=O)NC(C)(C)C)nc2n1` [PD173074], in the assay on isolated NRVM (48 h co-treatment), the “FGF2-mediated increases in ANP and BNP expression with inhibitor” value was “blocks”; the “FGF23-mediated increases in ANP and BNP expression with inhibitor” value is recorded as “blocks”.

B1: FGF23: recombinant mouse FGF23, 6His-tagged Tyr25-Val251 (Arg179Gln) (R&D Systems) (protein)
chain: YPDTSPLLGSNWGSLTHLYTATARTSYHLQIHRDGHVDGTPHQTIYSALMITSEDAGSVVITGAMTRRFLCMDLHGNIFGSLHFSPENCKFRQWTLENGYDVYLSQKHHYLVSLGRAKRIFQPGTNPPPFSQFLARRNEVPLLHFYTVRPRRHTQSAEDPPERDPLNVLKPRPRATPVPVSCSRELPSAEEGGPAASDPLGVLRRGRGDARGGAGGADRCRPFPRFV
modifications: left off: small tags and cut ends
As to B1, the “expression of β-MHC protein in wild-type NMVM” value in assay [1] (immunoblot) is “increased expression”. Further, the “cross-sectional area of wild-type NMVM” value in assay [1] (FGF 100 ng/ml, AngII 1 μM) is given as “significant increases”. The “expression of ANP and BNP” value in the assay with isolated NRVM was “significantly increased”.

B2: FGF2: recombinant mouse FGF2 (Ala11-Ser154) (R&D Systems) (protein)
chain: ALPEDGGAAFPPGHFKDPKRLYCKNGGFFLRIHPDGRVDGVREKSDPHVKLQLQAEERGVVSIKGVCANRYLAMKEDGRLLASKCVTEECFFFERLESNNYNTYRSRKYSSWYVALKRTGQYKLGSKTGPGQKAILFLPMSAKS
For the molecule B2, in assay [1] (immunoblot), the “expression of β-MHC protein in FGFR4−/− NMVM” value is reported as “induced this effect” and the “expression of β-MHC protein in wild-type NMVM” value is given as “increased expression”. Further, in assay [1] (FGF 100 ng/ml, AngII 1 μM), the “cross-sectional area (size) of NMVM from FGFR4−/− mice” value is reported as “increase the size” and the “cross-sectional area of wild-type NMVM” value was “significant increases”. The “expression of ANP and BNP” value in the assay on isolated NRVM is on record as “significantly increased”.
